T1: human EphA8 (Homo sapiens, UniProt P29322)
T1 construct: a protein of the extracellular region of each human Eph receptor fused with the SEAP protein and the His tag; made in house; host or cells: Expi293F cells (culture supernatant)
T1 sequence (P29322 28-542 limits assumed): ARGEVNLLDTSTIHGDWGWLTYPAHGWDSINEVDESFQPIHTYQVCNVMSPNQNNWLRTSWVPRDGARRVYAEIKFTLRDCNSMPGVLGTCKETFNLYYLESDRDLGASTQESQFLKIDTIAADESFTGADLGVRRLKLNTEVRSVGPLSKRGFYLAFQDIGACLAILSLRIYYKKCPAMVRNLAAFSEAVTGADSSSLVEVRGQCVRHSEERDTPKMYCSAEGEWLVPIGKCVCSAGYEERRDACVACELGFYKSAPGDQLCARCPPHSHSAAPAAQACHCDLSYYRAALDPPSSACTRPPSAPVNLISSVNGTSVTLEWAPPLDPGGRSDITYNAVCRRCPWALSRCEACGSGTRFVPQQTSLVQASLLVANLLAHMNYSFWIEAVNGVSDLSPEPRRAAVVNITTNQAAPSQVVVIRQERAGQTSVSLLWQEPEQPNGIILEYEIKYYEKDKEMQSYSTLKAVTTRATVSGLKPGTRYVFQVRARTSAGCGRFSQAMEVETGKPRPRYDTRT

T2: human EphB1 (Homo sapiens, UniProt P54762)
T2 construct: a protein of the extracellular region of each human Eph receptor fused with the SEAP protein and the His tag; made in house; host or cells: Expi293F cells (culture supernatant)
T2 sequence (P54762 18-540 limits assumed): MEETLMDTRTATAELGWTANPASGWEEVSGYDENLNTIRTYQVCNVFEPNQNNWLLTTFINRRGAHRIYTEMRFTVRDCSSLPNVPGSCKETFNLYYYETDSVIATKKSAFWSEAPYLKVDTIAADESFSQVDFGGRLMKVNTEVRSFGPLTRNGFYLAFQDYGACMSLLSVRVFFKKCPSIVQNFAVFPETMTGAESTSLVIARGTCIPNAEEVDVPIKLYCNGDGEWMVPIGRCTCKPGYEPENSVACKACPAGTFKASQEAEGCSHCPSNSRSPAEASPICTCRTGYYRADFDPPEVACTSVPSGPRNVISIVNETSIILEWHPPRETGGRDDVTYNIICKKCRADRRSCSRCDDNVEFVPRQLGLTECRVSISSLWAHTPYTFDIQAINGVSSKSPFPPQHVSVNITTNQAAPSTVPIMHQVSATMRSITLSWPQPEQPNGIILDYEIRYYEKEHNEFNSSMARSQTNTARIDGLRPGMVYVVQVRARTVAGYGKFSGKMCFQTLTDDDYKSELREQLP

T3: human EphB6 (Homo sapiens, UniProt O15197)
T3 construct: a protein of the extracellular region of each human Eph receptor fused with the SEAP protein and the His tag; made in house; host or cells: Expi293F cells
T3 sequence (O15197 32-594 limits assumed): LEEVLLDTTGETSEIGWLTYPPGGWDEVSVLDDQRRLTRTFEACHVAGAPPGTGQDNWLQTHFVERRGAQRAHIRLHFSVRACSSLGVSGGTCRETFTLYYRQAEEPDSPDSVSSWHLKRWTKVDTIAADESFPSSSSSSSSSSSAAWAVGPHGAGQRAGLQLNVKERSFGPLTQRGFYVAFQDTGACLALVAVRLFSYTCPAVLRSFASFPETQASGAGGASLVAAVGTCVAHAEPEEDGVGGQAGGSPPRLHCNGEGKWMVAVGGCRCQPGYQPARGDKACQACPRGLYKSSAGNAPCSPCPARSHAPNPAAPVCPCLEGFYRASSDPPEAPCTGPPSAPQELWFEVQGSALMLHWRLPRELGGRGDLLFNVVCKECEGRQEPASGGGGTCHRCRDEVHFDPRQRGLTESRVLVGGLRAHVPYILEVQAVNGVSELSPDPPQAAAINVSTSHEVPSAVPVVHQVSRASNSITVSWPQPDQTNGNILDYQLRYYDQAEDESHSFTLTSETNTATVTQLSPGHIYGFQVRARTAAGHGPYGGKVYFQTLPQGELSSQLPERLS


Columns and labels:
Assay in all cases: Selectivity ELISA of humanized antibodies for human Eph receptor
Type in all cases: binding
Conditions in all cases: coated protein 1 nM
human EphA5 = biological target: T4, human EphA5 (Homo sapiens, UniProt P54756)
T4 construct: a protein of the extracellular region of each human Eph receptor fused with the SEAP protein and the His tag; made in house; host or cells: Expi293F cells (culture supernatant)
T4 sequence (P54756 25-573 limits assumed): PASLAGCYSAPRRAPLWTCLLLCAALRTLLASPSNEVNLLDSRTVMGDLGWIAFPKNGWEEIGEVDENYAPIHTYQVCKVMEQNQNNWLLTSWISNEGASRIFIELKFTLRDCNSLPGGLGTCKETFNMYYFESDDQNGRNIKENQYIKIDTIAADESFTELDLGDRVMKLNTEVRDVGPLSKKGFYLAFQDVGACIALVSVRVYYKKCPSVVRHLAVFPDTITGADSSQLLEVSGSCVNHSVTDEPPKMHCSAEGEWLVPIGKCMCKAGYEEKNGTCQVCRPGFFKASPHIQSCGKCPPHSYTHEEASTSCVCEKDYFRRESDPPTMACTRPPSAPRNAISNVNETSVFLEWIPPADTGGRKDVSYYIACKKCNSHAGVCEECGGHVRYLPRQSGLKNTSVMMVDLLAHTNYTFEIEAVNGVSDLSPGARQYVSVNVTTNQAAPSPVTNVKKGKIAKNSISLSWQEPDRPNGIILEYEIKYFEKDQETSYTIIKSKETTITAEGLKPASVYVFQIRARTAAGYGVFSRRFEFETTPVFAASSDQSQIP
Outline: (§1)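 Steps: coat anti-His antibody; block, then 1% BlockAce overnight at 4 °C; add Eph receptor extracellular region-SEAP-His (1 nM final) 1 h; add humanized antibody 1 h; add HRP anti-IgG 1 h; develop TMB; stop with acid; read 450 nm.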

human EphA8 = biological target: T1, human EphA8
Outline: as §1

human EphB1 = biological target: T2, human EphB1
Outline: as §1

human EphB6 = biological target: T3, human EphB6
Outline: as §1

Molecule	hEphA5-SEAP-: absorbance at 450 nm, percentage with respect to hEphA4-SEAP-His as 100% (human EphA5) [%]	hEphA8-SEAP-: absorbance at 450 nm, percentage with respect to hEphA4-SEAP-His as 100% (human EphA8) [%]	hEphB1-SEAP-: absorbance at 450 nm, percentage with respect to hEphA4-SEAP-His as 100% (human EphB1) [%]	hEphB6-SEAP-: absorbance at 450 nm, percentage with respect to hEphA4-SEAP-His as 100% (human EphB6) [%]
67 (antibody, V domains shown, synthetic humanized antibody heavy chain variable region sequence; synthetic humanized antibody light chain variable region sequence) VH: QIQLVQSGSELKKPGASVKVSCKASGYTFTDYSMHWVRQAPGQGLKWMGWINTETGEPTYAQGFTGRFVFSLDTSVSTAYLQISSLKAEDTAVYYCARIPLYYYGSRYWYFDVWGQGTTVTVSS VL: DIQMTQSPSSLSASVGDRVTITCRASENIYRNLAWYQQKPGKAPKLLVYAATNLADGVPSRFSGSGSGTDYTLTISSLQPEDFATYYCQHFWGTPWTFGQGTKVEIK	4.8	4.7	4.6	4.7
77 (antibody, V domains shown, synthetic humanized antibody heavy chain variable region sequence; synthetic humanized antibody light chain variable region sequence) VH: QVQLVQSGSELKKPGASVKVSCKASGYTFTDYSMHWVRQAPGQGLEWMGWINTETGEPTYADDFKGRFVFSLDTSVSTAYLQISSLKAEDTAVYYCARIPLYYYGSRYWYFDVWGQGTTVTVSS VL: DIQMTQSPSSLSASVGDRVTITCRASENIYRNLAWYQQKPGKAPKLLVYAATNLADGVPSRFSGSGSGTDYTLTISSLQPEDFATYYCQHFWGTPWTFGQGTKVEIK	4.4	4.8	4.6	4.5
78 (antibody, V domains shown, synthetic humanized antibody heavy chain variable region sequence; synthetic humanized antibody light chain variable region sequence) VH: QVQLVQSGSELKKPGASVKVSCKASGYTFTDYSMHWVRQAPGQGLKWMGWINTETGEPTYADDFKGRFVFSLDTSVSTAYLQISSLKAEDTAVYYCARIPLYYYGSRYWYFDVWGQGTTVTVSS VL: DIQMTQSPSSLSASVGDRVTITCRASENIYRNLAWYQQKPGKAPKLLVYAATNLADGVPSRFSGSGSGTDYTLTISSLQPEDFATYYCQHFWGTPWTFGQGTKVEIK	5.1	5.4	5.0	5.2

Other lines, results leading:

hEphA5-SEAP-: absorbance at 450 nm, percentage with respect to hEphA4-SEAP-His as 100% (human EphA5) [%]	hEphA8-SEAP-: absorbance at 450 nm, percentage with respect to hEphA4-SEAP-His as 100% (human EphA8) [%]	hEphB1-SEAP-: absorbance at 450 nm, percentage with respect to hEphA4-SEAP-His as 100% (human EphB1) [%]	hEphB6-SEAP-: absorbance at 450 nm, percentage with respect to hEphA4-SEAP-His as 100% (human EphB6) [%]	Molecule
5.7	5.5	5.4	5.7	156 (antibody, V domains shown, synthetic humanized antibody heavy chain variable region sequence; synthetic humanized antibody light chain variable region sequence) VH: QIQLVQSGSELKKPGASVKVSCKASGYTFTDYSMHWVRQAPGQGLKWMGWINTETGEPTYAQGFTGRFVFSLDTSVSTAYLQISSLKAEDTAVYYCARIPLYYYGSRYWYFDVWGQGTTVTVSS VL: DIQMTQSPSSLSASVGDRVTITCRASENIYRNLAWYQQKPGKAPQLLLYAATNLADGVPSRFSGSGSGTDYTLTISSLQPEDFATYYCQHFWGTPWTFGQGTKVEIK
5.2	5.4	5.2	5.5	136 (antibody, V domains shown, synthetic humanized antibody heavy chain variable region sequence; synthetic humanized antibody light chain variable region sequence) VH: QVQLVQSGSELKKPGASVKVSCKASGYTFTDYSMHWVRQAPGQGLKWMGWINTETGEPTYADDFKGRFVFSLDTSVSTAYLQISSLKAEDTAVYYCARIPLYYYGSRYWYFDVWGQGTTVTVSS VL: EIVMTQSPATLSVSPGERATLSCRASENIYRNLAWYQQKPGQSPRLLIYAATNLADGIPARFSGSGSGTEYTLTISSLQSEDFAVYYCQHFWGTPWTFGQGTKVEIK

Source: patent US10428140B2, “Anti-EphA4 antibody” (EISAI R&D MANAGEMENT CO., LTD., priority 2015, dated 2019)
